Assay results taken from PMC13070007, “TRBC2-targeting antibody–drug conjugates for the treatment of T cell cancers” (Nature cancer, 2025).
Changes are numbered by the printed parent chain. Names and notes keep the numbering of the source.

B1: YR3-A5 anti-TRBC2 antibody (antibody, V domains shown)
VH: QVQLVQSGAEVKKPGASVKVSCKASPRGFHGYHMHWVRQAPGQGLEWMGFINPYNDDIQSNERFRGRVTMTSDKSTTTAYMELSSLRSEDTAVYYCARGNGKWGDGAYRFFDFWGQGTLVTVSS
VL: DVVMTQSPLSLPVTPGEPASISCRSSQNLVHSNGRTYLQWYLQKPGQSPQLLIYRVSNRFPGVPDRFSGSGSGTDFTLKISRVEAEDVGVYFCSQSTHVPYTFGGGTKVEIK
notes: also called parent; source: transient transfection of CHO cells (ExpiCHO or CHO-S), purified (HisTrap column or Protein A magnetic beads; SEC); copies: 2 + 2
B2: JX1.1 anti-TRBC2 antibody (antibody, V domains shown)
VH: B1 VH with R27Y
VL: B1 VL with V30K, S32R
notes: human VH; murine IgG2a Fc region; human VL; Human variable light and heavy chains fused to a murine IgG2a Fc region; also called clone V30K, S32R, R27Y; source: ExpiCHO or CHO-S cells, purified (HisTrap column or Protein A magnetic beads; SEC); copies: 2 + 2

Tests used:
[1] = target: T1, TRBC2 protein (recombinant) (Homo sapiens, UniProt A0A5B9); assay: SPR; Biacore T200, 25 °C; antibodies captured on protein A/G immobilised on CM5 chips; TRBC1 or TRBC2 protein as analyte, threefold dilutions from 1,000 nM to 4.1 nM, multiple-cycle kinetics; PBS-P (20 mM phosphate pH 7.4, 137 mM NaCl, 2.7 mM KCl, 0.05% P20); 1:1 kinetics binding model; settings: both partners purified
T1 construct: T cell receptor beta constant 2 (TRBC2), recombinant protein bought from Acro Biosystems; The discussion calls it 'TRBC2 peptide'; see the vendor's data sheet for the catalogue number; also called recombinant TRBC2 protein; TRBC2 peptide; source: bought: Acro Biosystems, cat. no; TR2-H52H3

[2] = target: T2, TRBC1 protein (recombinant) (Homo sapiens, UniProt P01850); assay: as above; settings: both partners purified
T2 construct: T cell receptor beta constant 1 (TRBC1), recombinant protein bought from Acro Biosystems; The discussion calls it 'TRBC1 peptide'; see the vendor's data sheet for the catalogue number; also called recombinant TRBC1 protein; TRBC1 peptide; source: bought: Acro Biosystems, cat. no; TR1-H52H4

TRBC1^+ TCR on T cells = target: T3, TRBC1^+ TCR on T cells (Homo sapiens, UniProt P01850); assay: flow cytometry on cells; T cell cancer cell lines stained with anti-TRBC2 antibodies with a mouse IgG2a Fc, then anti-mouse IgG-Alexa Fluor-647; settings: one partner purified
T3 construct: variable part (TRBV-TRBD-TRBJ) of the beta chain, different in each cell line or T cell; T cell receptor beta constant 1 (TRBC1) as part of the alpha-beta TCR on the cell surface; On cells the beta chain stands in the whole TCR-CD3 complex; also called TRBC1^+ cells; source: endogenous on wild-type Jurkat and H9 cells; normal human T cells from PBMCs

Binder	Kd [1] [nM]	binding result [2]	koff [1] [s⁻¹]	binding result (TRBC1^+ TCR on T cells)
B1	23	no binding	–	–
B2	10	no binding	0.0013	no binding
